In the supplement of paper PMC9170038:

Tested on: MS2 coat protein
Experiment: apparent KD of MS2 coat protein; designed switch direction (-1 OFF switch, 1 ON switch): -1; higher = weaker reporter binding
In short: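 SNAP-549-labelled MS2 coat protein was titrated, doubling from 0.7 or 1.5 nM to 3 µM, over designed RNA switches transcribed on Illumina chips by stalled E. coli RNA polymerase. Runs were done without input, with 200 uM small-molecule ligand, or with an oligonucleotide input. Apparent KD is the per-design median over clusters of curve-fitted normalised fluorescence.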

[1] = input ligand: microRNA oligo, concentration not stated
[2] = Eterna round: R95, input ligand: microRNA oligo, concentration not stated
[3] = Eterna round: R95, input ligand: FMN 200 uM
[4] = Eterna round: R95, input ligand: none

Sequence | apparent KD of MS2 coat protein (input ligand: FMN 200 uM) | apparent KD of MS2 coat protein [1] | apparent KD of MS2 coat protein (input ligand: none) | apparent KD of MS2 coat protein [2] | apparent KD of MS2 coat protein [3] | apparent KD of MS2 coat protein [4]
AUUAUAUAGACAGGAUAUUGAUUAUUAUUUUAACAUGAGGAUCACCCAUGUAACCUUAUGUGUAACAAGAAGGGUCAUUUAUUA [Title] (Eterna round: R96, puzzle: Exclusion NG 2) | 188 nM | 99.6 nM | 106 nM |  |  | 
AUUAUAUAGGUAGGAUAUAGAAUAUUAUUUUAACAUGAGGAUCACCCAUGUAACCUUAUGUGUAGCUAGAAGGACCAUUUAUUA [Title] (Eterna round: R96, puzzle: Exclusion NG 2) |  | 64.6 nM |  |  |  | 
AUUAUGUAAGGAUAUCUUACAUGUGACUUCGGUCACUGUUAAGAGAAGGUACAUGAGGAUCACCCAUGUAGAAC [Ex4-3: 47] (puzzle: Exclusion 4) |  |  |  | 18.1 nM |  | 
AUUAUGUUAGGAUAUUAUUUGCCCUACUAAGGCACGAGAAGUAAGAAGGGACAUGAGGAUCACCCAUGUUGGAG [Eternabot (L2) Solution 71] (Eterna round: R97, puzzle: Exclusion 4) | 30.3 nM |  | 42.7 nM |  |  | 
AUUAUUUAAGUCAGGAUAUCGUAUUUAUUUAAAUACGAGAAGGGACAUGAGGAUCACCCAUGUAAUAAAUUUUA [JMFs Solution 2] (puzzle: Brourd's mod of Exclusion 4) |  |  |  | 16.6 nM |  | 
AUUCAACAUGAGGAUCACCCAUGUGAGGAUAUGCGAGAAUAGACUUCGGUCAGAUAGAGCAGAAGGCGCAGAUA [EX1 #5] (Eterna round: R97, puzzle: Exclusion 1) | 22 nM |  | 29.1 nM |  |  | 
AUUCCACAUGAGGAUCACCCAUGUGAGGAUAUCAUGCUUCGUAGUAAACUACGAAGUGUGAGAAGGCACAAUGG [Omei Ex1 C3] (Eterna round: R97, puzzle: Exclusion 1) | 183 nM |  | 62 nM |  |  | 
AUUCCUUGUGUUAGGAUAUGUCACUACCGUAUGCGACAGAAGGAACAUGAGGAUCACCCAUGUGAGUUAGCCGA [Usened] (puzzle: Brourd's mod of Exclusion 4) |  |  |  | 52.4 nM |  | 
AUUGAUAGCACAGGAUAUUGAGAUUUGAAUUGACAAGAAGGGUGUACAUGAGGAUCACCCAUGUAAUGGGAGAAUGAUUGAUUA [JR_ExcNG1_Sub001] (Eterna round: R96, puzzle: Exclusion NG 1) | 1260 nM | 1040 nM | 1640 nM |  |  | 
AUUGAUGUUGAGGAUAUGCAUAUAUUUAUACUAGCAGAAGGCGAUACAUGAGGAUCACCCAUGUUCAUGGAAGU [JR_E6_Sub093] (puzzle: Exclusion 6) |  |  |  | 24.7 nM | 39.1 nM | 28 nM
AUUGAUGUUGAGGAUAUGCUUUUAUUUAUAAUAGCAGAAGGCGAUACAUGAGGAUCACCCAUGUUCAUGGUAGU [JR_E6_Sub095] (Eterna round: R96, puzzle: Exclusion 6) | 77.6 nM | 52.3 nM | 63.4 nM |  |  | 
AUUGAUGUUGAGGAUAUGCUUUUAUUUAUAAUAGCAGAAGGCGAUACAUGAGGAUCACCCAUGUUCAUGGUAGU [JR_E6_Sub095] (puzzle: Exclusion 6) |  |  |  | 50.4 nM |  | 
AUUGUAGAUGUGAGGAUAUCGUAGAUUUUUUGAAACGAGAAGGCACAUGAGGAUCACCCAUGUAAGAUGUAGGU [JR_BMOE4_Sub053] (puzzle: Brourd's mod of Exclusion 4) |  |  |  | 118 nM | 45.8 nM | 298 nM
AUUGUAUAGGAAGGAUAUAGAAUAUUAUUUUAACAUGAGGAUCACCCAUGUAACCUUAUGUGUAGCUAGAAGGUCCAUUUAUUA [Title] (Eterna round: R96, puzzle: Exclusion NG 2) |  | 90.2 nM |  |  |  | 
AUUGUUUAUGUAGGAUAUGCCUGGCGUGCCUUCGCAGAAGGACAUGAGGAUCACCCAUGUAUUGCGGUCUGCGUUCAGAUCGCG [salish99_ExNG1_r4_026] (Eterna round: R96, puzzle: Exclusion NG 1) | 65.3 nM | 34.3 nM | 47.5 nM |  |  | 
AUUGUUUAUGUAGGAUAUGCCUGGCGUGCCUUUGCAGAAGGACAUGAGGAUCACCCAUGUAUUGCGGUCUGCGUUCAGAUCGCU [salish99_ExNG1_r4_033] (Eterna round: R96, puzzle: Exclusion NG 1) | 44.4 nM | 28.7 nM | 30.7 nM |  |  | 
AUUGUUUGAUACCUCUAAUACAUGAGGAUCACCCAUGUUAUCGAGGAUAUGCAUUAGAGUGGUUAGCAGAAGGCGAAGUAAUUG [JR_ExcNG3_Sub030] (Eterna round: R96, puzzle: Exclusion NG 3) | 18.5 nM | 14.2 nM | 17.1 nM |  |  | 
AUUUAACAUGAGGAUCACCCAUGUGAGGAUAUGUAAAUUUUAAACAAAUAGGAAAUGAACAGAAGGCACACCGG [JR_Exclusion1_Sub006] (puzzle: Exclusion 1) |  |  |  | 41.6 nM | 61.7 nM | 37 nM
AUUUAAUUUAAUAAGAUCACAUGAGGAUCACCCAUGUAUAUAUAGGAUAUCAGCUCGAAUAGAGCUGAGAAGGAUAUAUACAUG [ExNG3/8-A4] (Eterna round: R96, puzzle: Exclusion NG 3) |  | 15.4 nM |  |  |  | 
AUUUAGCAAGCCUGAUCCUACAUGAGGAUCACCCAUGUAGUUCGUCUUAUUUGAAGACAACACAAAAGUGUUGUCUU [Omei Mir OFFv1 B7] (Eterna round: R97, puzzle: Sensor, turn-off variant 1) | 18.3 nM |  | 18.5 nM |  |  | 
AUUUCGGCAGGAUAUACAUGAGGAUCACCCAUGUAAAUUUUUCGUUUAACUUGAAUGUGUAGAAGGGCCAUUUA [Ex3 #61] (Eterna round: R97, puzzle: Exclusion 3) | 21.8 nM |  | 26.6 nM |  |  | 
AUUUGGUCAGGAUAUUGUUAGUUUAGUUGUUUGUAUUAGUUCGAGAAGGGACAUGAGGAUCACCCAUGUGAUUU [Ex4 #75] (Eterna round: R97, puzzle: Exclusion 4) | 87.1 nM |  | 100 nM |  |  | 
AUUUUAAUAUAGGAUAUCGAAAUAAUUAUUUAACGAGAAGGAUGAACAUGAGGAUCACCCAUGUGGUAUCAUGG [Mat - Exclusion 6 - JL Mod - D32] (puzzle: Exclusion 6) |  |  |  | 159 nM | 178 nM | 163 nM
AUUUUAAUAUAGGAUAUCGAAAUUAUUAUUUAACGAGAAGGAUAAACAUGAGGAUCACCCAUGUGGUAUCAUGG [JMFs Solution 1] (puzzle: Exclusion 6) |  |  |  | 134 nM | 138 nM | 196 nM
